Consider 3 molecules from patent US20140120095A1 (Boehringer Ingelheim, published 2014).

The labels stand for the following.
T1: recombinant human VEGF121 (human, UniProt P15692-9 27-147)
T1 construct: also called rhVEGF121
T1 sequence (looked up): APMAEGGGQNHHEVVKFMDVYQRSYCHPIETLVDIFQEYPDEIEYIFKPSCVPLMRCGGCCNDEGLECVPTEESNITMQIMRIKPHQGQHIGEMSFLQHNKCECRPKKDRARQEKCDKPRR

T2: human DLL1 (human, UniProt O00548 18-545, limits assumed)
T2 construct: also called hDLL1
T2 sequence (looked up): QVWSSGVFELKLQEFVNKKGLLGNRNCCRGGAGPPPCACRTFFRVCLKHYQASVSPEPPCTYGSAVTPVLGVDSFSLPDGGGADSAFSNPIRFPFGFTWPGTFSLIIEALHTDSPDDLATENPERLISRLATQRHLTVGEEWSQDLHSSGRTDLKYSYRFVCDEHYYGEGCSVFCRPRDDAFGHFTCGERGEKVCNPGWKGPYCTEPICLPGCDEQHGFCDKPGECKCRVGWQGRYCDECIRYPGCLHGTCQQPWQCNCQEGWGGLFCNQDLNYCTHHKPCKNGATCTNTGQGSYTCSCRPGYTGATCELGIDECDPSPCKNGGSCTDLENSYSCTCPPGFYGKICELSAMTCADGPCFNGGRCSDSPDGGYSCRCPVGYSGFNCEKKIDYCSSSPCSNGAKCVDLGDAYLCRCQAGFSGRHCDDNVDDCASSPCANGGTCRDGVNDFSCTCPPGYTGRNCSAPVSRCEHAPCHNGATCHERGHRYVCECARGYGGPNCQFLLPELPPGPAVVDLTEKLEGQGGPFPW

B1: VEGFBII022 (VHH, not shown: small tags and cut ends)
chain: EVQLVESGGGLVQTGDSLRLSCEVSGRTFSSYSMGWFRQAQGKEREFVVAISKGGYKYDSVSLEGRFTISKDNAKNTVYLQINSLKPEDTAVYYCASSRAYGSSRLRLADTYEYWGQGTQVTVSSGGGGSGGGSEVQLVESGGGLVQPGGSLRLSCVASGIRFMSMAWYRQAPGKHRELVARISSGGTTAYVDSVKGRFTISRDNSKNTVYLQMNSLKAEDTAVYYCNTFSSRPNPWGAGTQVTVSS
notes: Bivalent (heterodimeric) anti-VEGF VHH; also called VEGFBII23B04-9GS-5B05
B2: recombinant mouse VEGF164 (ligand, UniProt Q00731-2 27-190, looked up)
chain: APTTEGEQKSHEVIKFMDVYQRSYCRPIETLVDIFQEYPDEIEYIFKPSCVPLMRCAGCCNDEALECVPTSESNITMQIMRIKPHQSQHIGEMSFLQHSRCECRPKKDRTKPENHCEPCSERRKHLFVQDPQTCKCSCKNTDSRCKARQLELNERTCRCDKPRR
modifications: biotinylated as the labelled ligand of the mVEGF164/mVEGFR2 AlphaScreen
notes: also called mVEGF164; rmVEGF164
B3: DLLBII19F04 (VHH)
VHH: EVQLVESGGGLVQAEGSLRLSCAASGSTFSTYAMAWYRQAPGKQRELVAGISFDGSTHYAESVKGRFTISRDDAKNTVSLQMNSLKPEDAAVYYCYSVHPSTGFGSWGQGTQVTVSS

The target of assay [1] is T3, recombinant human VEGF165 (human, UniProt P15692-4 27-191, biotinylated in the competition assays).
T3 construct: Bought protein; also called hVEGF165; rhVEGF165
In words: AlphaScreen, hVEGF165/hVEGFR2-Fc competition, -HSA.

Assay [2] deals with T3, recombinant human VEGF165. Description: binding ELISA, coated rhVEGF165. For orientation: An ELISA detects its analyte on a solid surface through an enzyme-linked reagent.
Target sequence in this assay (P15692 other isoform, or with tags, fused parts or gaps): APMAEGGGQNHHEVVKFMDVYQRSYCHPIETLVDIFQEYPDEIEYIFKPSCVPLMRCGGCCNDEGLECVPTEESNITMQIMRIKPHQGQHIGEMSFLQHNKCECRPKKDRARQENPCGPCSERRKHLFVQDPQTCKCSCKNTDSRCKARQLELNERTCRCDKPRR
Assay [3] has as its target T3, recombinant human VEGF165. In words: AlphaScreen, hVEGF165/hVEGFR2-Fc competition. As to the method: (§1) Finally, streptavidin donor beads (20 μg/ml) are added and after 1 hour of incubation in the dark, fluorescence is measured on the Envision microplate reader.
Target sequence in this assay (P15692 other isoform, or with tags, fused parts or gaps): as above
A general note: Alpha assays give light when donor and acceptor beads are brought close together.

For assay [4], the target named is T3, recombinant human VEGF165. In words: AlphaScreen, hVEGF165/hVEGFR2-Fc competition, +5 uM HSA.
For assay [5], the target named is T3, recombinant human VEGF165. In words: AlphaScreen, hVEGF165/hVEGFR1-Fc competition, -HSA.
Assay [6] has as its target T4, VEGF (used to stimulate HUVEC cells) (UniProt P15692-4 27-191, limits assumed). In words: cell-based or functional assay.
For assay [7], the target named is T3, recombinant human VEGF165. Description: ELISA, hVEGF165/hVEGFR2-Fc competition. Also noted: % inhibition: concentration or dose not given beside the values.
Assay [8] has as its target T4, VEGF (used to stimulate HUVEC cells). Description: cell-based or functional assay. The source holds these as a separate data set.
In assay [9] the target is T3, recombinant human VEGF165. Description: AlphaScreen, hVEGF165/hVEGFR2-Fc competition. More on the design: % inhibition: concentration or dose not given beside the values. As to the method:
as §1

Assay [10] deals with T3, recombinant human VEGF165. Description: ELISA, hVEGF165/hVEGFR1-Fc competition. More on the design: % inhibition: concentration or dose not given beside the values.
Target sequence in this assay (P15692 other isoform, or with tags, fused parts or gaps): as above
The target of assay [11] is T1, recombinant human VEGF121. Description: binding ELISA, coated rhVEGF121. As to the method:
Binding to recombinant human VEGF121 is assessed via a solid phase binding ELISA. […] Wells are blocked with a casein solution (1% in PBS).

The target in assay [12] is B2. Description: AlphaScreen, mVEGF164/mVEGFR2-hFc competition. As to the method: (§2) Finally, streptavidin donor beads (20 μg/ml) are added and after 1 hour of incubation fluorescence is measured on the Envision microplate reader.
In assay [13] the target is T3, recombinant human VEGF165. Description: AlphaScreen, hVEGF165/hVEGFR1-Fc competition. As to the method:
as §1
Target sequence in this assay (P15692 other isoform, or with tags, fused parts or gaps): as above

Assay [14] has as its target T3, recombinant human VEGF165. Description: SPR Biacore, immobilised hVEGF165, two state reaction model. A general note: In SPR one partner is held on a chip, and binding of the other changes the refractive index at the surface.
Target sequence in this assay (P15692 other isoform, or with tags, fused parts or gaps): as above
For assay [15], the target named is B2. Description: binding ELISA, coated rmVEGF164. How it is done:
Cross-reactivity to mouse VEGF164 is determined using a binding ELISA. […] Wells are blocked with a casein solution (1% in PBS). […] A mouse VEGF164 reactive mAb is included as positive control.

The target of assay [16] is T3, recombinant human VEGF165. Description: AlphaScreen, hVEGF165/hVEGFR2-Fc competition, -HSA. This is another data set of the same source.
For assay [17], the target named is T3, recombinant human VEGF165. In words: AlphaScreen, hVEGF165/hVEGFR1-Fc competition. More on the design: % inhibition: concentration or dose not given beside the values. As to the method:
as §1
Target sequence in this assay (P15692 other isoform, or with tags, fused parts or gaps): as above

Another assay concerns the target T5, mouse VEGFR2-huFc (mouse, UniProt P35918 20-762, limits assumed).
T5 construct: also called mVEGFR2-hFc; mVEGFR2-Fc
In words: AlphaScreen, unlabelled mVEGF164 against biotinylated mVEGF164 on mVEGFR2-hFc. As to the method: as §2

Assay [18] addresses T6, recombinant human DLL4 (human, UniProt Q9NR61 25-522).
T6 construct: also called rhDLL4; hDLL4
Description: Biacore off-rate, periplasmic extract.

For a further assay, the target named is T2, human DLL1. In words: ELISA, coated human DLL1. How it is done:
(§3) Absence of binding to homologous ligands human DLL1 and human Jagged-1 is assessed via solid phase binding assay (ELISA). In brief, human DLL1 (Alexis, San Diego, Calif., USA) and human Jagged-1 (Alexis, San Diego, Calif., USA) are coated overnight at 4° C. at 1 μg/mL in a 96-well MaxiSorp plate (Nunc, Wiesbaden, Germany). Wells are blocked with a casein solution (1% in PBS). VHHs are applied as dilution series and binding is detected using a mouse anti-myc (Roche) and an anti-mouse-AP conjugate (Sigma, St. Louis, Mo., USA).

The next assay has as its target T7, recombinant mouse DLL4 (mouse, UniProt Q9JI71 27-532).
T7 construct: extracellular domain; also called rmDLL4; mDLL4
Description: binding ELISA, coated rmDLL4. How it is done: (§4) In order to determine cross-reactivity to mouse DII4 a binding ELISA is performed. […] Wells are blocked with a casein solution (1% in PBS). VHHs are applied as dilution series and binding is detected using a mouse anti-myc (Roche) and an anti-mouse-AP conjugate (Sigma, St Louis, Mo., USA) (FIG. 7 A-H). As reference, binding to human DII4 is measured.

Assay [19] deals with T6, recombinant human DLL4. Description: hDLL4 ELISA screen, periplasmic extract.
Assay [20] addresses T8, human DLL4 overexpressed on cells (human, UniProt Q9NR61 27-685).
T8 construct: full length human DLL4 on CHO or HEK293 cells; also called CHO-hDLL4; CHO-hDII4
Description: competitive FMAT, hNotch1-Fc on CHO-hDLL4.

The target of the next assay is T9, human Jagged-1 (human, UniProt P78504 34-1067, limits assumed).
T9 construct: also called hJagged-1; hJAG1
Description: ELISA, coated human Jagged-1. How it is done: as §3

The target in assay [21] is T6, recombinant human DLL4. Description: binding ELISA, coated rhDLL4. As to the method: as §4
Assay [22] concerns the target T6, recombinant human DLL4. Description: competition AlphaScreen, biot-hDLL4/hNotch1-Fc; partial inhibitor.

T4 sequence (P15692 other isoform, or with tags, fused parts or gaps limits assumed): as the sequence (P15692 other isoform, or with tags, fused parts or gaps) above
T7 sequence (Q9JI71 27-532): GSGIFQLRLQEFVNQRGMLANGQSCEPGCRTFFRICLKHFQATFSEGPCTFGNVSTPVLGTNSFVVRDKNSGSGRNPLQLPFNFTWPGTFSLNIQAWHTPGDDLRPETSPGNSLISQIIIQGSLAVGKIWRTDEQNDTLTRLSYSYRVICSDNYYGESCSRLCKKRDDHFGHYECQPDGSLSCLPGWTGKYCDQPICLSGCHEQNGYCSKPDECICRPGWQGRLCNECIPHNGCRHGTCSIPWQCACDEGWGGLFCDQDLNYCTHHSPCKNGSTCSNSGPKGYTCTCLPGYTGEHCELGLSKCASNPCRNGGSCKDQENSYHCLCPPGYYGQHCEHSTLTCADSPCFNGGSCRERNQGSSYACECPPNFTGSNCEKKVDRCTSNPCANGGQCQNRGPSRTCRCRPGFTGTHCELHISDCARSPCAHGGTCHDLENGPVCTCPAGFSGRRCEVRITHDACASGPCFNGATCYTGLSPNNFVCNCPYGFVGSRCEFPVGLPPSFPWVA
T5 sequence (P35918 20-762 limits assumed): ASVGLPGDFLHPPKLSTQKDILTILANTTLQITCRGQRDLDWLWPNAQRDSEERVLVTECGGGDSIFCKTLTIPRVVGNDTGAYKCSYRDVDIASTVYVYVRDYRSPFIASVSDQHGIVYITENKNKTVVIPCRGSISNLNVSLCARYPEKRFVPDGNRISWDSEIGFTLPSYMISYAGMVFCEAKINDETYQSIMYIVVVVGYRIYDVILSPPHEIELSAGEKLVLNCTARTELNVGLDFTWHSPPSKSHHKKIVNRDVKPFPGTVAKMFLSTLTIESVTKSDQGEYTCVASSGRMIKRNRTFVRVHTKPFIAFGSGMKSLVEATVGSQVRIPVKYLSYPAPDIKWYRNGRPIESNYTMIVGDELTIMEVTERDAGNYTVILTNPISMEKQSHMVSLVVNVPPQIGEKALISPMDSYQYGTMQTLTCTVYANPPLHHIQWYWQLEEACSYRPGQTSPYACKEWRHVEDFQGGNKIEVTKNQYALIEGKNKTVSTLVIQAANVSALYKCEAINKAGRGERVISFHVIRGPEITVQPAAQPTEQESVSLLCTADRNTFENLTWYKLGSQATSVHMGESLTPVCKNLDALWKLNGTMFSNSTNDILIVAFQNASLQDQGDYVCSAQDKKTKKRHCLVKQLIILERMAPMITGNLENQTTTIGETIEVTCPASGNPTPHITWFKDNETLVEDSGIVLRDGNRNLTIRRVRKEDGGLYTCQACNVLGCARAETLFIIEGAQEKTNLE

In the case of B1, the “% inh” value in [1] was 100%; in [5], 87%; in assay [16], 100%. Moreover, the half-maximal inhibitory concentration (IC50) (commonly the concentration at which inhibition is half-maximal) was found to be 0.017 nM in [1]; 0.007 nM in assay [3]; 0.03 nM in assay [4]; 0.07 nM in assay [5]; 0.164 nM in assay [7]; 0.007 nM in assay [9]. Besides, the IC50 is 0.225 nM in assay [10]; 108 nM in assay [12]; 0.008 nM in assay [13]; 0.05 nM in [16]; 0.009 nM in [17]. Besides, the EC50 (as a rule, the concentration giving half of the maximal effect) in assay [2] worked out at 0.224 nM; in [11] it was 0.54 nM; in assay [15], 0.464 nM. Also, the “% inhibition, VEGF HUVEC Erk phosphorylation assay” value in [6] is 94%. Besides, in assay [6], the “IC50, VEGF HUVEC Erk phosphorylation assay” value worked out at 0.18 nM. The % inhibition (commonly the percentage by which the read-out fell short of the control) is 100% in [7]; 100% in assay [9]; 89% in assay [10]; 100% in assay [13]; 98% in [17]. Besides, in assay [8], the “% inhibition, VEGF HUVEC proliferation assay” value amounted to 100%. Also, the “IC50, VEGF HUVEC proliferation assay” value in assay [8] amounted to 0.34 nM. For the same molecule, in assay [14], the equilibrium dissociation constant (Kd) (commonly the constant that tells how readily two partners part at equilibrium) turned out to be 0.14 nM. For the same molecule, the ka1 in assay [14] turned out to be 1.2e+06 M⁻¹ s⁻¹. The ka2 in assay [14] amounted to 0.014 s⁻¹. Besides, the kd1 in assay [14] worked out at 0.0091 s⁻¹. In assay [14], the kd2 came out at 0.00026 s⁻¹.
Regarding B2, the midpoint of inhibition in the assay with mouse VEGFR2-huFc, the IC50, lay at 0.05 nM.
As to B3, the off-rate (koff) (commonly the first-order rate constant of dissociation) with recombinant human DLL4 [18] turned out to be 0.0011 s⁻¹. The binding result with human DLL1 and with human Jagged-1 was “no binding” each time. For the same molecule, the EC50 in the assay with recombinant mouse DLL4 came out at 0.8 nM; with recombinant human DLL4 [21], 0.9 nM. The “% inh” value in the assay with recombinant human DLL4 [19] was determined as 98%. Besides, the concentration for half-maximal inhibition (IC50) in assay [20] was 33 nM; with recombinant human DLL4 [22] it was 0.05 nM.
